Source: article PMC7954794, “Protein context shapes the specificity of SH3 domain-mediated interactions in vivo” (Nature Communications, 2021)

Tested on: PPIs identified as affected by the SH3 domain deletions
Experiment: Liquid DHFR-PCA low-throughput validation of PPIs affected by SH3 deletion (Fig. S1D-E)
Format: cell-based, Saccharomyces cerevisiae
Details: bait LSB3; label = prey; liquid DHFR-PCA; prey _1 = lost, _2 = gained in screen
In short: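 Growth at 30 °C was tracked by OD each 15 min over 72 h in agar-free PCA selection medium, starting at 0.1 OD. Cells were diploids selected after mating, first cultured 48 h with NAT and HPH in synthetic complete MSG medium, pH 6.0.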

B1: YMR216C_2 (protein, UniProt Q03656 1-742, looked up)
Serine/threonine-protein …: MGSSINYPGFVTKSAHLADTSTDASISCEEATSSQEAKKNFFQRDYNMMKKAPAPTKSKLSLALQTSKSSSSANGTVQEDTSSKTEDFSTKSIKKKPDSGVESHVSIQSDSGPQSDSDLDSDSSISSCDERNEESLKDYRPGGYHPAFKGEPYKDARYILVRKLGWGHFSTVWLAKDMVNNTHVAMKIVRGDKVYTEAAEDEIKLLQRVNDADNTKEDSMGANHILKLLDHFNHKGPNGVHVVMVFEVLGENLLALIKKYEHRGIPLIYVKQISKQLLLGLDYMHRRCGIIHTDIKPENVLMEIGDVEGIVQMVEALDKQKREAKRLQRHVSRSSDITANDSSDEKWAECQTSMPCGSSSNSKSRSIEKDLSKRCFRRPRRHTIITGSQPLPSPISSSNFFEMRAHFCGSSHNSFSSVSGNRNIPSSINNNSINNGIGIKNSNNSFLNSVPHSVTRMFINEDSNDNNNNDNSKNKNNNNNNSNNNNNEDIMNTPLHEEQLADSLSTFDISNISQSSDTNGPYISNTMDSNSNVSTDINSPENLIQIKIADLGNACWYDEHYTNSIQTREYRSPEVLLGAPWGCGADIWSTACLIFELITGDFLFEPDEGHSYTKDDDHIAQIIELLGELPSYLLRNGKYTRTFFNSRGLLRNISKLKFWPLEDVLTEKYKFSKDEAKEISDFLSPMLQLDPRKRADAGGLVNHPWLKDTLGMEEIRVPDRELYGSGSDIPGWFEEVRDHKRH
- Ratio (Deletedscore / WTscore): 1.244
